The text below walks through data of patent US20250333497A1, “ACTIVATING ANTIBODIES OF RECEPTOR PROTEINS PLXDC1 AND PLXDC2” (THE REGENTS OF THE UNIVERSITY OF CALIFORNIA, priority 2022, published 2025).

In experiment [1] the target is T1, full length PLXDC1 (PLXDC1-Full) (Homo sapiens, UniProt Q8IUK5).
T1 construct: expressed in transfected cells
T1 sequence (Q8IUK5 19-500): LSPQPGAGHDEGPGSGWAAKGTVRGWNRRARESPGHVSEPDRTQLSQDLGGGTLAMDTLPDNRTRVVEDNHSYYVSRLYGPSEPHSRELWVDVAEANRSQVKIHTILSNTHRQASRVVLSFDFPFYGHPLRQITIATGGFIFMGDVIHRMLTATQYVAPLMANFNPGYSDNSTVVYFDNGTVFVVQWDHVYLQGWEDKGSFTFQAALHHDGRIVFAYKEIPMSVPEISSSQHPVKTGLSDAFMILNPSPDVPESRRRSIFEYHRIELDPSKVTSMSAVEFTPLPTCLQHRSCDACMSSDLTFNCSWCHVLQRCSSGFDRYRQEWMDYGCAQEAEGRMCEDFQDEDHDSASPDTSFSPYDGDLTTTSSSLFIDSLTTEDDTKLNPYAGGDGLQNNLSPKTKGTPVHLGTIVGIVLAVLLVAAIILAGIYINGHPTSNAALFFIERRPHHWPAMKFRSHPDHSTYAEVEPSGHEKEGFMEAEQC
Nature of the experiment: Domain A binding specificity: binding to full length PLXDC1 expressed in transfected cells. The note with it: for binding to PLXDC1: antibodies of Table 3 tested for ability to bind Domain A; for binding to full length PLXDC1 (PLXDC1-Full): transfected into a cell line that does not express PLXDC1, FIG. 3-4. An excerpt:
(§1) The specific binding to Domain A of a PLXDC protein can be tested with a method described herein. In some embodiments, the method employs a PLXDC with the Domain A deleted. […] An example is Compound 369 as described above.
(§2) The Domain A-binding antibodies are 3-C11, 4-A8, 5-E2, 2-H2, 3-G6, 3-G7, 8-A7, 8-A9, 8-C9 and 8-D9.
(§3) Both full length PLXDC1 and Domain A deleted PLXDC1 (PLXDC1-dA) have an epitope tag on the N-terminus.

Experiment [2] has as its target T2, Domain A-deleted PLXDC1 (PLXDC1-dA) (Homo sapiens, UniProt Q8IUK5).
T2 construct: expressed in transfected cells
Description: Domain A binding specificity: binding to Domain A-deleted PLXDC1 expressed in transfected cells. The note with it: for binding to PLXDC1 mutant with Domain A deleted: antibodies of Table 3 tested for ability to bind Domain A; for binding to Domain A-deleted PLXDC1 (PLXDC1-dA): transfected into a cell line that does not express PLXDC1, FIG. 3-4.
Excerpt: as §1, §2, §3

B1: A002: VH SEQ ID NO:82, VL SEQ ID NO:83; Domain A-binding PLXDC1-activating antibody (antibody, V domains shown)
VH: EVQLLESGGGLVQPGGSLRLSCAASGFTFKNYAMSWVRQAPGKGLEWVSAISASGGYTYYADSVKGRFTISRDNSKNTLYLQMNSLRAEDTAVYYCARGRWGAFDYWGQGTLVTVSS
VL: QSVLTQPPSVSGAPGQRVTISCTGSSSNIGSGYDVHWYQQLPGTAPKLLIYGNRNRPSGVPDRFSGSKSGTSASLAITGLQAEDEADYYCQSYDSSLKTWVFGGGTKLTVL
Regarding B1, in experiment [1], the “binding to PLXDC1” value is reported as “able to bind PLXDC1” and the “binding to full length PLXDC1 (PLXDC1-Full)” value (from here on “binding to full length PLXDC1”) is reported as “only bound to full length PLXDC1”. In experiment [2], the “binding to PLXDC1 mutant with Domain A deleted” value (from here on “binding to PLXDC1 mutant”) is “not the mutant with Domain A deleted” and the “binding to Domain A-deleted PLXDC1 (PLXDC1-dA)” value (from here on “binding … (PLXDC1-dA)”) was “did not bind to Domain A-deleted PLXDC1”.

B2: A010: VH SEQ ID NO:176, VL SEQ ID NO:177; Domain A-binding PLXDC1-activating antibody (antibody, V domains shown)
VH: QVQLVQSGAEVKKPGSSVKVSCKASGGTFSDEAIHWVRQAPGQGLEWMGRIIPVLGIASYAQKFQGRVTITADESTSTAYMELSSLRSEDTAVYYCARGLSRRAFYFDYWGQGTLVTVSS
VL: DIQMTQSPSSLSASVGDRVTITCRASQTIGNYLNWYQQKPGKAPKLLIYVASSLQSGVPSRFSGSGSGTDFTLTISSLQPEDFATYYCQQSYRYPYTFGQGTKVEIK
As to B2, the “binding to PLXDC1” value in experiment [1] was “able to bind PLXDC1”. In addition, the “binding to PLXDC1 mutant” value in experiment [2] is “not the mutant with Domain A deleted”.

B3: A001: VH SEQ ID NO:38, VL SEQ ID NO:39; Domain A-binding PLXDC1-activating antibody (antibody, V domains shown)
VH: EVQLLESGGGLVQPGGSLRLSCAASGFTFSSYAMSWVRQAPGKGLEWVSTIYASGATTYYADSVKGRFTISRDNSKNTLYLQMNSLRAEDTAVYYCARLKLYHAAFDIWGQGTLVTVSS
VL: DIQMTQSPSSLSASVGDRVTITCRASQDISSYLNWYQQKPGKAPKLLIYTASSLQSGVPSRFSGSGSGTDFTLTISSLQPEDFATYYCQQSYSYPLTFGQGTKVEIK
For the molecule B3, in experiment [1], the “binding to PLXDC1” value is “able to bind PLXDC1” and the “binding to full length PLXDC1” value was “only bound to full length PLXDC1”. In experiment [2], the “binding to PLXDC1 mutant” value is reported as “not the mutant with Domain A deleted” and the “binding … (PLXDC1-dA)” value is recorded as “did not bind to Domain A-deleted PLXDC1”.

B4: A004: VH SEQ ID NO:20, VL SEQ ID NO:21; Domain A-binding PLXDC1-activating antibody (antibody, V domains shown)
VH: QVQLVESGGGVVQPGRSLRLSCAASGFTFSDYGMHWVRQAPGKGLEWVAVISYEGSNEYYADSVKGRFTISRDNSKNTLYLQMNSLRAEDTAVYYCARGSEGSGFDVWGQGTLVTVSS
VL: DIQMTQSPSSLSASVGDRVTITCRASQRISNYLNWYQQKPGKAPKLLIYAASSLQSGVPSRFSGSGSGTDFTLTISSLQPEDFATYYCQQSYSPPYTFGQGTKVEIK
As to B4, in experiment [1], the “binding to PLXDC1” value was “able to bind PLXDC1” and the “binding to full length PLXDC1” value was “only bound to full length PLXDC1”. Also, in experiment [2], the “binding to PLXDC1 mutant” value was “not the mutant with Domain A deleted” and the “binding … (PLXDC1-dA)” value is listed as “did not bind to Domain A-deleted PLXDC1”.
